Our source for the heterodimer formation ratio (%) values is US20260217835.

What all share (assay): SEC area ratio of heteromultimer after coexpression of full-length heavy chain, light chain and Fc fragment in Expi293F
In data set [1] the target is T1, IgG1 Fc fragment with CH3 modification E345R/K360E/D399M/Y407A/K409V (SEQ ID NO: 76).
T1 chain: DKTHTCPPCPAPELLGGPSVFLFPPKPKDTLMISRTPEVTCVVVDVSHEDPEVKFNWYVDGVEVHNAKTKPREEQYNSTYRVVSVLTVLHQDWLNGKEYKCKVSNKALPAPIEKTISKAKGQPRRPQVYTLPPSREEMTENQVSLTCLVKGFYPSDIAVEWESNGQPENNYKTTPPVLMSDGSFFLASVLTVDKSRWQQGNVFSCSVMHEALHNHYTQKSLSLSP

Data set [2] has as its target T2, IgG1 Fc fragment with CH3 modification E345R/Q347R/K360D/T366V/D399M/Y407A/K409V (SEQ ID NO: 74).
T2 chain: T1 chain with Q127R, E140D, T146V

The target in data set [3] is T3, IgG1 Fc fragment with CH3 modification E356K/D399K/K409E/K439E (SEQ ID NO: 68).
T3 chain: T1 chain with R125E, E136K, E140K, M179K, A187Y, V189E, K219E

The target in data set [4] is T4, IgG1 Fc fragment with CH3 modification E356K/K392D/D399K/K409D (SEQ ID NO: 75).
T4 chain: T1 chain with R125E, E136K, E140K, K172D, M179K, A187Y, V189D

The target in data set [5] is T5, IgG1 Fc fragment with CH3 modification E356K/K392D/D399K/K439E (SEQ ID NO: 71).
T5 chain: T1 chain with R125E, E136K, E140K, K172D, M179K, A187Y, V189K, K219E

Data set [6] has as its target T6, IgG1 Fc fragment with CH3 modification K392L/T394W/F405A/Y407V (SEQ ID NO: 70).
T6 chain: T1 chain with R125E, E140K, K172L, T174W, M179D, F185A, A187V, V189K

For data set [7], the target named is T7, IgG1 Fc fragment with CH3 modification Q347E/S354Y/T366Y/Y407T (SEQ ID NO: 69).
T7 chain: T1 chain with R125E, Q127E, S134Y, E140K, T146Y, M179D, A187T, V189K

Data set [8] deals with IgG1 Fc fragment with CH3 modification T394W/F405A (SEQ ID NO: 64).
For data set [9], the target named is T8, IgG1 Fc fragment with CH3 modification Y349C/E357C/K392D/D399K (SEQ ID NO: 73).
T8 chain: T1 chain with R125E, Y129C, E137C, E140K, K172D, M179K, A187Y, V189K

In data set [10] the target is IgG1 Fc fragment, WT (no CH3 modification), SEQ ID NO: 63 in Table 5.

Numbering of substitutions follows the chain as printed. Names and notes keep the numbering of the source.

B1: full-length IgG heavy chain with CH3 modification T350V/L351Y/T366L/K392L/T394W/F405A/Y407V (SEQ ID NO: 60), coexpressed with light chain SEQ ID NO: 61 (protein)
chain 1: QVQLQESGPGLVRPSQTLSLTCTVSGYSITSDHAWSWVRQPPGRGLEWIGYISYSGITTYNPSLKSRVTMLRDTSKNQFSLRLSSVTAADTAVYYCARSLARTTAMDYWGQGSLVTVSSASTKGPSVFPLAPSSKSTSGGTAALGCLVKDYFPEPVTVSWNSGALTSGVHTFPAVLQSSGLYSLSSVVTVPSSSLGTQTYICNVNHKPSNTKVDKRVEPKSCDKTHTCPPCPAPELLGGPSVFLFPPKPKDTLMISRTPEVTCVVVDVSHEDPEVKFNWYVDGVEVHNAKTKPREEQYNSTYRVVSVLTVLHQDWLNGKEYKCKVSNKALPAPIEKTISKAKGQPREPQVYVYPPSREEMTKNQVSLLCLVKGFYPSDIAVEWESNGQPENNYLTWPPVLDSDGSFALVSKLTVDKSRWQQGNVFSCSVMHEALHNHYTQKSLSLSP
chain 2: not shown
With B1, the heterodimer formation ratio (%) in data set [1] came to 0%; in data set [2], 0%; in data set [3], 0%; in data set [4] it was 0%; in [5] it was 0%; in [6], 66%. Also, the heterodimer formation ratio (%) in data set [7] came to 0%; in data set [8] it was 6%; in data set [9], 0%; in [10] it was 0%.
